Test results: PMC5772480, “Galectin-13, a different prototype galectin, does not bind β-galacto-sides and forms dimers via intermolecular disulfide bridges between Cys-136 and Cys-138” (Scientific Reports, 2018)
Positions count from the first letter of the chain named. ≈ marks a conversion by molar mass, not a printed value. Blank lines part the entries; values can stand above or below the molecule they belong to.

Experiments:
[1] = molecular target: T1, Gal-13 (galectin-13, placental protein 13, PP13) (Homo sapiens, UniProt Q9UHV8, R53H); test: inhibition of hemagglutination of chicken erythrocytes; type: cell-based; details: pH 7.4 PBS, on ice; minimum inhibition concentration
T1 construct: gene LGALS13; full length 1-139, synthetic gene in pET28a, E. coli BL21(DE3); N-terminal His tag removed by thrombin; disulfide-linked homodimer
T1 sequence (Q9UHV8 1-139 R53H): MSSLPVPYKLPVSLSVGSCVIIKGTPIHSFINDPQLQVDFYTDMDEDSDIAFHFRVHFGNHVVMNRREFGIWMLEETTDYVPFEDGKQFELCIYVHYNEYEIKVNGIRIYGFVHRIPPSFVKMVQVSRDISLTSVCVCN
Description: inhibition of hemagglutination of chicken erythrocytes on Gal-13 (galectin-13, placental protein 13, PP13) | maltose and arabinose could inhibit the biological activity of […]

[2] = molecular target: T2, Galectin-13 (wild type) (human), Q9UHV8; test: non-reducing SDS-PAGE; SDS-PAGE of Gal-13 with or without DTT reduction; dimer band at approximately 38 kDa without DTT; details: remark: other sources report otherwise
T2 chain: T1 sequence (Q9UHV8 1-139 R53H) with H53R

[3] = molecular target: T2, Galectin-13 (wild type) (human), Q9UHV8; test: native gel or EMSA; native PAGE, 15% separating gel, Tris-glycine buffer, 5 μg protein per lane, 90 V for 3 h; migration compared with Gal-1 (dimer) and C136S/C138S (monomer); details: remark: other sources report otherwise
[4] = molecular target: T2, Galectin-13 (wild type) (human), Q9UHV8; test: SEC; Superdex 75 10/300, PBS pH 7.4, 25 °C, 100 μg protein loaded, 0.5 ml/min; apparent molecular weights from a standard curve; Gal-13 also run in the presence of 10 mM DTT (mostly monomer, small amount of dimer); details: remark: other sources report otherwise

MIC [1]: 200 mM (≈ 30 mg/mL)
Molecule: OC1OC[C@H](O)[C@H](O)[C@H]1O (some centres unmarked) [arabinose]

MIC [1]: 12.5 mM (≈ 4.28 mg/mL)
Molecule: OC[C@H]1O[C@H](O[C@H]2[C@H](O)[C@@H](O)C(O)O[C@@H]2CO)[C@H](O)[C@@H](O)[C@@H]1O (some centres unmarked) [maltose]

stoichiometry N [2]: 2 | stoichiometry N [3]: 2 | stoichiometry N [4]: 2
B1: Galectin-13 (wild type), Q9UHV8 1-139 (natural protein)
chain: T1 sequence (Q9UHV8 1-139 R53H) with H53R
modifications: here or on the partner: intermolecular disulfide bonds Cys136-Cys138' and Cys138-Cys136' in the dimer; intermolecular disulfide bonds Cys136-Cys138' and Cys138-Cys136' in the dimer
